# Entries after “also recorded” stand apart in the source; their conditions may differ.
# B1: ROBO1-Ig5: recombinant soluble ROBO1 ECD construct comprising all five Ig domains (protein)
# chain: SRLRQEDFPPRIVEHPSDLIVSKGEPATLNCKAEGRPTPTIEWYKGGERVETDKDDPRSHRMLLPSGSLFFLRIVHGRKSRPDEGVYICVARNYLGEAVSHNASLEVAILRDDFRQNPSDVMVAVGEPAVMECQPPRGHPEPTISWKKDGSPLDDKDERITIRGGKLMITYTRKSDAGKYVCVGTNMVGERESEVAELTVLERPSFVKRPSNLAVTVDDSAEFKCEARGDPVPTVRWRKDDGELPKSRYEIRDDHTLKIRKVTAGDMGSYTCVAENMVGKAEASATLTVQEPPHFVVKPRDQVVALGRTVTFQCEATGNPQPAIFWRREGSQNLLFSYQPPQSSSRFSVSQTGDLTVTNVQRSDVGYYICQTLNVAGSIITKAYLEVTDVIADRPPPVIRQGPVNQTVAVDGTLTLSCVATGSPVPTILWRKDGVLVSTQDSRIKQLESGVLQIRYAKLGDTGRYTCTASTPSGEATWSAYIEVQEF
# Experiments:
# NOTCH4 = test: Cell fractionation and Western blot for HES1 and NOTCH4-ICD in HC11 cells; type: cell-based, mouse; conditions: HC11 cells treated during differentiation
# Protocol: Notch receptor activation can be regulated through direct interactions with binding partners^24. […] To address this possibility, co-immunoprecipitation experiments were performed using MBA-MD-231 cells lysates, which express detectable levels of all four Notch receptors (NOTCH1-4). Endogenous ROBO1 co-immunoprecipitated with NOTCH4, but not […], NOTCH2 or NOTCH3 (FIG. 3H and data not shown). Next, the expression and subcellular localization of the NOTCH4 intracellular domain (N4-ICD) and HES1 was examined in control (Scr) and Robo1 (siR1) knockdown HC11 cells. Expression of Robo1 was inhibited in HC11 cells that were then primed for differentiation as described above. […] This effect was not observed in control Robo1 knockdown cells engineered to overexpress Robo1 (siR1+o/e) or cells treated with the γ-secretase inhibitor GSI (siR1+GSI) (FIGS. 3I-3K).
# To examine the effects of ROBO1-ECD fragments on Notch signaling, HC11 cells were treated with ROBO1-ECD fragments and Notch effector expression assessed. […] In addition, HC11 cells were treated with ROBO-Ig5 during differentiation. These cells were then fractionated and a Western blot performed to detect HES1 and NOTCH4-ICD (FIG. 8B).
# Protein lysates were prepared by directly lysing adherent cells in 1× sample buffer supplemented with 5% beta-mercaptoethanol and boiled for 5 minutes. Protein lysate was resolved by SDS-PAGE and transferred to a PVDF for 90 minutes at 400 mA or overnight at 30 mA. Primary antibodies were used at the concentration indicated in Table 1 and incubated overnight at 4° C. HRP conjugated secondary antibodies (Jackson Labs) were used at 1:3000 and incubated for 45 minutes at room temp. All proteins were detected using Clarity ECL (BioRad) using a BioRad Chemi-Doc MP Imager and quantified using ImageLab software as previously described a.
# mammary gland = test: Subcutaneous injection into ovariectomized, hormone-treated mice; carmine-stained mammary gland branching; type: in vivo; conditions: 14 days, ovariectomized animals given E, P, Prl
# Protocol: The influence of ROBO1 ECD fragments in vitro on primary alveolar progenitor cell growth and in vivo on branching morphogenesis was tested. FACS-purified murine and bovine alveolar progenitor cells (AVPs) were plated as single cells in Matrigel and grown for 10 days in the absence and presence of ROBO1-ECDs fragments (FIGS. 9A, B). […] ROBO1-Ig5 fragments were also tested in vivo by subcutaneously injecting them (7.5 mammary gland/kg/day) into ovariectomized animals that were orally administered hormones in Nutella: estrogen (E, 1 μg/day), progesterone (P, 1 mg/day mammary gland/day) and prolactin (Prl, 0.2 mg/day mammary gland/day) (FIG. 9C). The mammary glands were harvested after 14 days of ROBO1-Ig5 fragment treatment, carmine stained and evaluated. […] Other aspects can involve ROBO1-ECD constructs that are tagged with the murine-Fc sequence. This tag is recognized by an endogenous receptor that facilitates transport into tissues 4. Mouse mammary glands were surgically dissected, spread onto a glass slide, and fixed in Carnoy's solution (25% glacial acetic acid and 75% ethanol). […] C57BL mice (8-10 weeks old) were bilaterally ovariectomized and allowed to recover for 1 week^47. During the recovery, mice were trained with oral administration Nuttella. Mice were fed Nutella mixed with 17beta-estradiol (E, 1 μg, Sigma)+progesterone (P, 1 mg, Sigma) for three weeks (daily). For ROBO1-Ig5 ECD, prolactin (Prl, 200 μg, NHPP) was given by Nutella oral administration over one week (daily), starting after 1 week E+P. For ROBO2 mAb, prolactin (Prl, 50 μg) was injected by intraperitoneal injection over 2.5 weeks (daily), starting after 1 week E+P. ROBO1-Ig5 ECD was injected subcutaneously (7.5 mg/kg ROBO1-Ig5 ECD or PBS; daily) over the 2 weeks period, starting after 1 week of E+P. ROBO2 mAbs or IgG isotype control mAbs ([…]) were injected subcutaneously twice/week over 17 days, starting after 1 week of E+P^48.
# HC11 cells = test: HC11 dome assay (milk dome formation on differentiation in DIP media); type: cell-based, mouse
# Protocol: To investigate ROBO1 function during alveologenesis, Robo1 gene expression was inhibited in HC11 cells (Robo1 KD). HC11 cells are a well-established, prolactin-responsive model of lactation,^19,20. Cells in which Robo1 gene expression was not inhibited are referred to as WT or Robo1+/+ herein. To measure milk production, cells were grown to confluence and then primed by treatment with epidermal growth factor (EGF, 10 ng/ml). The EGF is administered for three days in combination with charcoal-stripped fetal bovine serum, followed by one day of charcoal-stripped fetal bovine serum in the absence of EGF. These primed cells are then differentiated by treatment with dexamethasone (1 μg/ml), insulin (5 μg/ml) and prolactin (Prl, 5 μg/ml) media (DIP media) for between 3 and 5 days (FIG. 2A). Differentiation (Dif) results in the development of milk-filled domes (FIG. 2B). […] If the cells were left undifferentiated (Undif), there was little dome formation in either WT or Robo1−/− cells (FIG. 2B). Next, tissue from Robo1 knockout mice (Robo1−/−) and wild type mice (WT or Robo1+/+) mice was analyzed. Mammary glands were harvested from pregnant day 18 WT and Robo1−/− animals and alveologenesis analyzed by serially sectioning, carmine staining and then quantifying the area occupied by alveoli in sections located at top, middle and bottom portions of the tissue.
# Dome number formation in response to a titration of ROBO1 ECD fragments was quantified. […] A bovine ROBO1-Ig5 construct was also tested in this assay and, as with the rat constructs, more domes were formed in response to treatment with higher concentrations of […] (FIG. 7H).
# HC11 cells were grown in RPMI 1640 media (Gibco) supplemented with 10% fetal bovine serum (BioFluid Technologies), 5 μg/mL insulin (Sigma), and 10 ng/ml epidermal growth factor (EGF; Sigma). To induce differentiation in HC11 cells, confluent plates were given fresh media (RPMI 1640 media supplemented with 5% charcoal-stripped fetal bovine serum (BioFluid Technologies), 5 μg/mL insulin, and 10 ng/ml epidermal growth factor (EGF; Sigma) for 3 days followed by 24 hours of priming in priming medium (RPMI 1640 media supplemented with 5% charcoal-stripped fetal bovine serum (BioFluid Technologies), and 5 μg/mL insulin. After priming, DIP medium (RPMI 1640 media supplemented with 5% charcoal-stripped fetal bovine serum (BioFluid Technologies), 10^−6 M dexamethasone (Sigma), 5 μg/mL insulin, and 5 μg/mL prolactin (National Hormone and Peptide program) was added with fresh media every 24 hours.
molecule,measurement,setting,value
B1,NOTCH4-ICD in the cytoplasmic fraction,NOTCH4,lower; also recorded: reduced
same,HES1 protein in the nuclear fraction,NOTCH4; relative to control treatment,lower levels; also recorded: decreased
same,NOTCH4-ICD (N4-ICD) protein in the nuclear fraction,NOTCH4; relative to control treatment,lower levels; also recorded: decreased
same,mammary gland area (size),mammary gland,significantly greater area
same,number of primary (1°) branches,mammary gland,higher number
same,overall branching density,mammary gland,not different from that of controls; also recorded: no increase
same,secondary (2°) and tertiary (3°) branching,mammary gland,More and Increased
same,mammary gland area (size),mammary gland; listed as ROBO1-Ig-5,Increased
same,number of primary (1°) branches,mammary gland; listed as ROBO1-Ig-5,Increased
same,dome formation in control cells (Scr),"HC11 cells; HC11 Scramble KD (Scr) cells, ROBO1-ECD treatment",increased dome formation
same,dome formation in response to a titration of ECD fragments,"HC11 cells; HC11 cells, increasing ECD concentration",higher rates of dome formation
same,dome formation with ECD fragments generated in the presence of heparin,"HC11 cells; HC11 cells, vs same fragments generated in the absence of heparin (300 ng/ml)",fewer domes; also recorded: diminished
same,dome formation in Notch4 knockdown cells (shNotch4),"HC11 cells; HC11 shNotch4 cells, ROBO1-Ig5 treatment",same level of dome formation as untreated Notch4 knockdown cells; also recorded: unaffected
same,dome formation in cells in which Robo1 expression was inhibited (shRobo1),"HC11 cells; HC11 shRobo1 cells, ROBO1-Ig5 treatment",same level as that of control cells (Scr) treated with ROBO1-ECD fragments; also recorded: rescued
